Source: patent US20250059295A1 (AstraZeneca / MedImmune, published 2025)

Assays:
[1] = biological target: T1, six transmembrane epithelial antigen of prostate-2 (STEAP2) (human, UniProt Q8NFT2 1-490); experiment: flow cytometry on C4-2 cells expressing STEAP2
T1 construct: whole, on cells
T1 sequence (looked up): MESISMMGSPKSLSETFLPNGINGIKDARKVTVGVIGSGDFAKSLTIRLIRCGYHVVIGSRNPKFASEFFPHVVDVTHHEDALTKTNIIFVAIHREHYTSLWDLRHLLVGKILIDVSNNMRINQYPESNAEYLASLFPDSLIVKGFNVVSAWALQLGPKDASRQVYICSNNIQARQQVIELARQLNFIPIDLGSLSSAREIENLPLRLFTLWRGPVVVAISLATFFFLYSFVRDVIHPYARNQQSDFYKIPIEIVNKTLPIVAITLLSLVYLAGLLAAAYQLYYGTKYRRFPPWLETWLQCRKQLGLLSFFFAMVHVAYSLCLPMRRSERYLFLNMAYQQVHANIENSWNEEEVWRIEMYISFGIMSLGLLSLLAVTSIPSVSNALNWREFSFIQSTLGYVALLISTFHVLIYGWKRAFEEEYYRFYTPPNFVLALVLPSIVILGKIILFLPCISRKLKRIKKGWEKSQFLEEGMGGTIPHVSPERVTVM
Description: (§1) Cell based binding assays were performed on BD FACSymphony™ A5 Cell Analyzer. To determine binding affinity of AZD6621, C4-2 cells and Jurkat (TCR neg) CD8ab+ cells expressing Steap2 and CD8ab respectively were used for the assay. The cells were harvested and resuspended in FACS buffer (DPBS-1X, 2% FBS, & 5 mM EDTA) at 2×10e6 cells/ml. Cells were seeded in U-bottom Tissue Culture treated 96 Well-plate at 50 ul/well making the cell number at 100,000 per well. The test articles (AZD6621) titration were prepared (2×) using FACS buffer with the starting working concentration of 600 nM and with 1:4 dilution up to 8 titration points. Cells (50 ul/well) were then combined with primary antibody (50 ul/well) titration and incubated at 4° C. for 1 hour. After incubation, the cells were washed 2× using 200 ul of FACS buffer and resuspended with freshly prepared FACS buffer (100 ul/well) containing secondary antibody (Anti-H+L: Goat anti-Human IgG (H+L) Cross-Adsorbed Secondary Antibody, Alexa Fluor 647 (Invitrogen #A-21445) at 1:400 dilution) & DAPI (Live/Dead stain). The secondary antibody was incubated at 4° C. for 1 hour. […] The data was analyzed with FlowJo v 10.6.1. The target receptor binding was determined using geometric mean calculation on FlowJo software detecting the positive APC signal in each well. […]

[2] = biological target: T2, CD8 (cluster of differentiation 8), CD8ab (UniProt P01732 22-235; P10966 22-210); experiment: flow cytometry on cells carrying CD8
T2 construct: whole, on cells; The method names Jurkat (TCR neg) CD8ab+ cells
T2 sequence (P01732 22-235, chain 1 of 2): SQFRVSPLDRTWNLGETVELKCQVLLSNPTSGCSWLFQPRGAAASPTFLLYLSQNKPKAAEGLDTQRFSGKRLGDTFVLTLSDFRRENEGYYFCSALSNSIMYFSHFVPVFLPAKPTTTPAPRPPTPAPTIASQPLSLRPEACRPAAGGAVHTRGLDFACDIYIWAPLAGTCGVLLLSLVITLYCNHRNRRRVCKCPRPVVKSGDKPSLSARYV
T2 sequence (P10966 22-210, chain 2 of 2): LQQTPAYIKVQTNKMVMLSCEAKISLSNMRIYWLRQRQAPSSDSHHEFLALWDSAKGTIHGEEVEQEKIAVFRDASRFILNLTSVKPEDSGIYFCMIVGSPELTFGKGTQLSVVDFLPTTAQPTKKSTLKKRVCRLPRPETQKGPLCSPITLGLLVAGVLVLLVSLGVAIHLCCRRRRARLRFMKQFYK
Description: as §1

B1: 40A3LO12-TED4-K17/E75 (other)
heavy 1: QVQLQQSGPGLVKPSQTLSLTCAISGDSVSRNSAVWNWIRQSPSRGLEWLGRTYYRSKWYNDYAVSVKSRITINPDTSKNQFSLQLNSVTPEDTAVYYCARGLRQNQFYYYMDVWGKGTTVTVSSASTKGPSVFPLAPSSKSTSGGTAALGCLVKDYFPEPVTVSWNSGALTSGVHTFPAVLQSSGLYSLKSVVTVPSSSLGTQTYICNVNHKPSNTKVDKRVEPKSCDGGGGSGGGGSEVQLVESGGALVKPGGSLRLSCAASGFTFTEAWMHWVRQAPGKQLEWVAQIKDRSQTYATYYAESVKGRFTISRDDSKNTLYLQMNSLKTEDTAVYYCRGVYYANAPFDYWGQGTLVTVSSASTKGPSVCPLAPSSKSTSGGTADLGCLVKDYFPEPVTVSWNSGALTSGVHTFPAVLQSSGLYSLSSVVTVPSSSLGTQTYICNVNHKPSNTKVDKRVEPKSVDKTHTCPPCPAPPVAGPSVFLFPPKPKDTLMISRTPEVTCVVVDVKHEDPEVKFNWYVDGVEVHNAKTKPREEQYNSTYRVVSVLTVLHQDWLNGKEYKCKVSNKALPAPIEKTISKAKGQPREPQVYTLPPCREEMTKNQVSLWCLVKGFYPSDIAVEWESNGQPENNYKTTPPVLDSDGSFFLYSKLTVDKSRWQQGNVFSCSVMHEALHNHYTQKSLSLSPGK
light 1: not shown
heavy 2: EVQLLESGGGLVQPGGSLRLSCAASGFTFDDYAIGWFRQAPGKEREGVSCIRVSDGSTYYADSVKGRFTISRDNSKNTLYLQMNSLRAEDTAVYYCAAGSLYTCVQSIVWPARPYYDMDYWGQGTLVTVSSGGGGSGGGGSQVQLQQSGPGLVKPSQTLSLTCAISGDSVSRNSAVWNWIRQSPSRGLEWLGRTYYRSKWYNDYAVSVKSRITINPDTSKNQFSLQLNSVTPEDTAVYYCARGLRQNQFYYYMDVWGKGTTVTVSSASTKGPSVFPLAPSSKSTSGGTAALGCLVKDYFPEPVTVSWNSGALTSGVHTFPAVLQSSGLYSLKSVVTVPSSSLGTQTYICNVNHKPSNTKVDKRVEPKSCDKTHTCPPCPAPPVAGPSVFLFPPKPKDTLMISRTPEVTCVVVDVKHEDPEVKFNWYVDGVEVHNAKTKPREEQYNSTYRVVSVLTVLHQDWLNGKEYKCKVSNKALPAPIEKTISKAKGQPREPQVCTLPPSREEMTKNQVSLSCAVKGFYPSDIAVEWESNGQPENNYKTTPPVLDSDGSFFLVSKLTVDKSRWQQGNVFSCSVMHEALHNHYTQKSLSLSPGK
light 2: DIVMTQSPLSLPVTPGEPASISCRSSQSLVHNTGNTYLSWYLQKPGQSPQSLIYKVSNRASGVPDRFSGSGSGTDFTLKISRVEAEDVGVYYCGQGTQAPFTFGSGTKVEIKGQPKAAPSVRLFPPCSEELQANKATLVCLISDFYPGAVTVAWKADSSPVKAGVETTTPSKQSNNKYAASSYLSLTPEQWKSHRSYSCQVTHEGSTVEKTVAPTEVS
notes: also called TED4 LO12
[1]
  binding result: binds
[2]
  binding result: binds
